Experimental data: publication PMC3634827

How the values were obtained:
CoREST [1] = target: CoREST (UniProt Q8CFE3); test: FLAG co-immunoprecipitation, immunoblot quantitated with ImageJ; details: NIH 3T3 cells transiently transfected; mean of two independent experiments; parent: est. 1.0; read off a plot
CoREST [2] = target: CoREST (UniProt Q8CFE3); test: co-immunoprecipitation of endogenous proteins (CoREST IP'ed with Lsd1), immunoblot quantitated with ImageJ; details: primary MEFs; mean of three independent experiments; p<0.005 vs wild type; parent: est. 1.0; read off a plot
CoREST [3] = target: CoREST (UniProt Q8CFE3); test: co-immunoprecipitation of endogenous proteins (Lsd1 IP'ed with CoREST), immunoblot quantitated with ImageJ; details: primary MEFs; mean of three independent experiments; p<0.001 vs wild type; parent: est. 1.0; read off a plot

UniProt Q8CFE3, sequence (Q8CFE3 whole entry): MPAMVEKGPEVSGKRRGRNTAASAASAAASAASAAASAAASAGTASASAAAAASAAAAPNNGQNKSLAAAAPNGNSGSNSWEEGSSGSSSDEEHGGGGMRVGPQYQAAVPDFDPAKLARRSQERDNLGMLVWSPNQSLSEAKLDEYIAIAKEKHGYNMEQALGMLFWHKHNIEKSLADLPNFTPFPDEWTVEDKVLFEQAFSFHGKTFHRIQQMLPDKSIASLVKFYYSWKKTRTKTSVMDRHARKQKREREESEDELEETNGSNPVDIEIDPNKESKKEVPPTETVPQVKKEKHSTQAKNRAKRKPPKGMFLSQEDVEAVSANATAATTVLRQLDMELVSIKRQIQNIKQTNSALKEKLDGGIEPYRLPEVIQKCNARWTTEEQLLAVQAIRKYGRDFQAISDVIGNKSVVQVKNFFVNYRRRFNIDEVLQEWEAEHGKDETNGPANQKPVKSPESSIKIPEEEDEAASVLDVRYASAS

ratio to parent (CoREST [1]) | ratio to parent (CoREST [2]) | ratio to parent (CoREST [3]) | Substance
0.09 | – | – | FLAG-tagged wild-type Lsd1 (lysine-specific demethylase 1) (from UniProt Q6ZQ88) E413G; M448V
1.8 | – | – | FLAG-tagged wild-type Lsd1 (lysine-specific demethylase 1) (from UniProt Q6ZQ88) N535A

The remaining lines, values behind:

Substance | ratio to parent (CoREST [1]) | ratio to parent (CoREST [2]) | ratio to parent (CoREST [3])
FLAG-tagged wild-type Lsd1 (lysine-specific demethylase 1) (from UniProt Q6ZQ88) E413G | 0.89 | – | –
FLAG-tagged wild-type Lsd1 (lysine-specific demethylase 1) (from UniProt Q6ZQ88) M448V | 0.35 | – | –
endogenous wild-type Lsd1 (from UniProt Q6ZQ88) E413G; M448V | – | 0.44 | 0.11
